Changes are numbered by the printed parent chain.
B1: WapR-001: anti-Psl monoclonal antibody, class II epitope; VH SEQ ID NO: 5, VL SEQ ID NO: 6 (antibody, V domains shown)
VH: EVQLLESGGGLVQPGGSLRLSCSASGFTFSRYPMHWVRQAPGKGLEYVSDIGTNGGSTNYADSVKGRFTISRDNSKNTVYLQMSSLRAEDTAVYHCVAGIAAAYGFDVWGQGTMVTVSS
VL: QAGLTQPASVSGSPGQSITISCTGTSSDIATYNYVSWYQQHPGKAPKLMIYEGTKRPSGVSNRFSGSKSGNTASLTISGLQAEDEADYYCSSYARSYTYVFGTGTELTVL
modifications: WapR-001 VH; WapR-001 VL
B2: WapR-003: anti-Psl monoclonal antibody, class II epitope; VH SEQ ID NO: 9, VL SEQ ID NO: 10 (antibody, V domains shown)
VH: QMQLVQSGGGLVQPGGSLRLSCSASGFTFSSYPMHWVRQAPGKGLDYVSDISPNGGATNYADSVKGRFTISRDNSKNTVYLQMSSLRAEDTAVYYCVMGLVPYGFDNWGQGTMVTVSS
VL: QTVVTQPASVSASPGQSITISCAGTSGDVGNYNFVSWYQQHPGKAPKLLIYEGSQRPSGVSNRFSGSRSGNTASLTISGLQAEDEADYYCSSYARSYTYVFGTGTKLTVL
modifications: WapR-003 VH; WapR-003 VL
B3: WapR-002: anti-Psl monoclonal antibody, class II epitope; VH SEQ ID NO: 7, VL SEQ ID NO: 8 (antibody, V domains shown)
VH: B2 VH with M2V, A57S, V79L, Y80F, N107I, M113L
VL: QTVVTQPASVSGSPGQSITISCTGTSSDVGGYNYVSWYQQHPGKAPKLMIYEVSNRPSGVSNHFSGSKSGNTASLTISGLQAEDEADYYCSSYTTSSTYVFGTGTKVTVL
modifications: WapR-002 VH; WapR-002 VL

Experiments:
P. aeruginosa = conditions: cited from earlier work
Psl = assay: mAb reactivity with Psl after mild alkaline treatment during carbohydrate purification; format: binding, P. aeruginosa; conditions: data not shown
Description: This observation raises the possibility that the class I mAb binds to a conformational epitope or a yet to be elucidated sub-stoichiometric Psl isoform. The potential for the latter is supported by the observation that mild alkaline, but not exhaustive protease treatment, during carbohydrate purification abolishes Cam-003 reactivity while maintaining WapR-001 and WapR-016 reactivity (data not shown).

[1] = system: attachment of Pseudomonas aeruginosa to epithelial cells; conditions: mAb concentration giving max. inhibition of cell attachment; cited from earlier work
[2] = molecular target: Pseudomonas aeruginosa Psl exopolysaccharide; conditions: anti-Psl mAb binding; cited from earlier work

Molecule | OPK EC50 (P. aeruginosa) [µg/mL] | mAb reactivity after mild alkaline treatment of Psl (Psl) | Cell attachment max. inhibition [1] [µg/mL] | Kd [2] [nM]
B1 | 0.310 | maintaining | 30.0 | 0.84
B2 | 0.278 |  | 30.0 | 12.2
B3 | 0.396 |  | 30.0 | 12.6

— US10870710B2, “Synthetic oligosaccharide subunits of the Psl exopolysaccharide of pseudomonas aeruginosa and uses thereof” (Medlmmune Limited, priority 2013, dated 2020)
